According to the supplement of paper PMC7877785:
± gives the uncertainty stated by the source.

Test: self-splicing fitness, log relative to wild type (ln ratio); higher = more splicing; Tetrahymena group I intron in knt gene, E. coli kanamycin selection, DiMSum; sequences stand for … in CUCUCU…GGAGGGAAAAGUUAUCAGGCAUGCACCUGGUAGCUAGUCUUUAAACCAAUAGAUUGCAUCGGUUUAAAAGGCAAGACCGUCAAAUUGCGGGAAAGGGGUCAACAGCCGUUCAGUACCAAGUCUCAGGGGAAACUUUGAGAUGGCCUUGCAAAGGGUAUGGUAAUAAGCUGACGGACAUGGUCCUAACCACGCAGCCAAGUCCUAAGUCAACAGAUCUUCUGUUGAUAUGGAUGCAGUUCACAGACUAAAUGUCGGUCGGGGAAGAUGUAUUCUUCUCAUAAGAUAUAGUCGGACCUCUCCUUAAUGGGAGCUAGCGGAUGAAGUGAUGCAACACUGGAGCCGCUGGGAACUAAUUUGUAUGCGAAAGUAUAUUGAUUAGUUUUGGAGUACUCGUGGUCG
Outline: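 DiMSum derived fitness as the error-weighted combination of fold changes across replicates, kanamycin versus no kanamycin, normalised to wild type. E. coli BL21(DE3) held the library, which randomised all eight P1ex-region intron nucleotides within the knt kanamycin-resistance gene on pET-22b(+). Six replicate transformations grew overnight at 37°C or 30°C on LB agar with or without 25 μg/mL kanamycin, also containing 100 μg/mL carbenicillin, 50 μM IPTG and 0.2% rhamnose, and pooled colonies were amplicon-sequenced on an Illumina HiSeq 2500.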

Sequence | self-splicing fitness (ln) (30 °C) | self-splicing fitness (ln) (37 °C)
CGAAAGCAAUAUUACGCUUU | -3.54 ± 0.35 | -2.7 ± 0.41
CGAAAGCAAUAUUACGGAAA | -2.9 ± 0.28 | -2.49 ± 0.22
CGAAAGCAAUAUUACGGACG | -2.73 ± 0.21 | -2.25 ± 0.22
CGAAAGCAAUAUUACGGCAA | -1.82 ± 0.11 | -1.03 ± 0.1
CGAAAGCAAUAUUACGGGAA | -2.17 ± 0.4 | -2.08 ± 0.26
CGAAAGCAAUAUUACGGUAA | -2.13 ± 0.16 | -1.56 ± 0.15
CGAAAGCAAUAUUACGGUCA | -0.303 ± 0.12 | -0.586 ± 0.14
CGAAAGCAAUAUUACGUAGA | -2.43 ± 0.092 | -1.49 ± 0.12
CGAAAGCAAUAUUACGUAUU | -3.3 ± 0.15 | -1.51 ± 0.13
CGAAAGCAAUAUUACGUCCA | -1.26 ± 0.12 | -0.276 ± 0.13
CGAAAGCAAUAUUACGUCGU | -3.33 ± 0.14 | -2.36 ± 0.18
CGAAAGCAAUAUUACGUCUC | -2.71 ± 0.42 | -1.15 ± 0.26
CGAAAGCAAUAUUACGUGCU | -3.73 ± 0.18 | -2.41 ± 0.18
CGAAAGCAAUAUUACGUGUG | -0.273 ± 0.054 | 0.27 ± 0.066
CGAAAGCAAUAUUACGUUCA | -0.312 ± 0.074 | 0.0231 ± 0.091
CGAAAGCAAUAUUACGUUGC | -4.09 ± 0.17 | -3.23 ± 0.2
CGACAGCAAUAUUACGACUU | -1.1 ± 0.059 | -0.881 ± 0.066
CGACAGCAAUAUUACGCAUA | -3.03 ± 0.18 | -2.33 ± 0.18
CGACAGCAAUAUUACGCCUG | -0.901 ± 0.066 | -0.0701 ± 0.069
CGACAGCAAUAUUACGCGAU | -2.8 ± 0.22 | -2.46 ± 0.28
CGACAGCAAUAUUACGGACA | -1.24 ± 0.11 | -0.761 ± 0.12
CGACAGCAAUAUUACGGCCG | -2.22 ± 0.12 | -1.21 ± 0.12

Sequence | self-splicing fitness (ln) (30 °C) | self-splicing fitness (ln) (37 °C)
CGACAGCAAUAUUACGGGAG | -3.21 ± 0.15 | -1.97 ± 0.13
CGACAGCAAUAUUACGGUGU | -3.48 ± 0.14 | -2.77 ± 0.16
CGACAGCAAUAUUACGUAAC | -4.37 ± 0.23 | -2.03 ± 0.31
CGACAGCAAUAUUACGUACU | -1.26 ± 0.082 | -0.578 ± 0.089
CGACAGCAAUAUUACGUCCU | -0.518 ± 0.072 | -0.311 ± 0.078
CGACAGCAAUAUUACGUGCG | -4.12 ± 0.17 | -2.5 ± 0.19
CGACAGCAAUAUUACGUUUG | -3.09 ± 0.15 | -1.19 ± 0.11
CGAGAGCAAUAUUACGAAUU | -2.77 ± 0.29 | 
CGAGAGCAAUAUUACGAUUC | -2.96 ± 0.38 | -1.19 ± 0.29
CGAGAGCAAUAUUACGCACA | -2.47 ± 0.27 | 
CGAGAGCAAUAUUACGCACU | -2.06 ± 0.2 | -1.89 ± 0.23
CGAGAGCAAUAUUACGCCAG |  | -1.51 ± 0.4
CGAGAGCAAUAUUACGCGCA | -3.56 ± 0.48 | -1.38 ± 0.26
CGAGAGCAAUAUUACGCGCG | -1.64 ± 0.25 | 
CGAGAGCAAUAUUACGGUCA | -3.17 ± 0.27 | -2.29 ± 0.3
CGAGAGCAAUAUUACGUAAC |  | -1.98 ± 0.34
CGAGAGCAAUAUUACGUAGG | -3.03 ± 0.15 | -1.39 ± 0.15
CGAGAGCAAUAUUACGUCGU |  | -3.09 ± 0.37
CGAGAGCAAUAUUACGUGUA | -3.34 ± 0.22 | -2.9 ± 0.23
CGAGAGCAAUAUUACGUUUG | -4.63 ± 0.28 | -2.12 ± 0.22
CGAUAGCAAUAUUACGAAGU | -2.89 ± 0.18 | -2.58 ± 0.23
CGAUAGCAAUAUUACGACCU | -1.35 ± 0.12 | 0.288 ± 0.14
